Test results published in patent US20240024501A1 (BONUM THERAPEUTICS, published 2024).

Target: PD-1-Fc (UniProt Q15116 25-167, limits assumed)
Assay: cell-based or functional assay

Sequence of PD-1-Fc (Q15116 25-167 limits assumed): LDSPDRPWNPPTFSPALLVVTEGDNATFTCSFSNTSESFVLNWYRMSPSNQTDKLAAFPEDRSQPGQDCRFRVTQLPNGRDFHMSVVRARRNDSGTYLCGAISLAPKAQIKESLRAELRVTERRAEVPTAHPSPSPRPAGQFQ

EC50 of IL-2 activity, HEK-Blue IL-2 reporter cells, IgG1 coated wells (no PD-1) | EC50 of IL-2 activity, HEK-Blue IL-2 reporter cells, PD-1 coated wells | EC50 of IL-2 activity, HEK-Blue IL-2 reporter cells, control wells (no PD-1) | Binder
62 pM | 31 pM |  | AF4379 (other) heavy: APTSSSTKKTQLQLEHLLLDLQMILNGINNYKNPKLTDMLTFEFYMPKKATELKHLQCLERELKPLEEVLNLAQSKNFHLRPRDLISNINVIVLELKGSETTFMCEYADETATIVEFLNRWITFCQSIISTLTGGGGSGGGGSGGGGSGGGGSQVQLVQSGAEVKKPGASVKVSCKASGDTFTRYYVHWVRQAPGQGLEWMGIINPSGGYASYAQKFQGRVTMTRDTSTSTVYMELSSLRSEDTAVYYCAAGLFIWGQGTLVTVSSAKTTAPSVYPLAPVCGDTTGSSVTLGCLVKGYFPEPVTLTWNSGSLSSGVHTFPAVLQSDLYTLSSSVTVTSSTWPSQSITCNVAHPASSTKVDKKIEPRGPTIKPCPPCKCPAPNAAGGPSVFIFPPKIKDVLMISLSPIVTCVVVDVSEDDPDVQISWFVNNVEVHTAQTQTHREDYNSTLRVVSALPIQHQDWMSGKEFKCKVNNKDLGAPIERTISKPKGSVRAPQVYVLPPPEEEMTKKQVTLTCMVTDFMPEDIYVEWTNNGKTELNYKNTEPVLDSDGSYFMYSKLRVEKKNWVERNSYSCSVVHEGLHNHHTTKSFSRTPGK light: DIQMTQSPSSLSASVGDRVTITCRASQSIGRYLAWYQQKPGKAPKLLIYSASNLETGVPSRFSGSGSGTDFTLTISSLQPEDFATYYCQQYNSFPVTFGPGTKVDIKRADAAPTVSIFPPSSEQLTSGGASVVCFLNNFYPKDINVKWKIDGSERQNGVLNSWTDQDSKDSTYSMSSTLTLTKDEYERHNSYTCEATHKTSTSPIVKSFNRNEC
1670 pM | 118 pM |  | AF4389 (other) heavy 1: APTSSSTKKTQLQLEHLLLDLQMILNGINNYKNPKLTDMLTFEFYMPKKATELKHLQCLERELKPLEEVLNLAQSKNFHLRPRDLISNINVIVLELKGSETTFMCEYADETATIVEFLNRWITFCQSIISTLTGGGGSGGGGSGGGGSGGGGSQVQLVQSGAEVKKPGASVKVSCKASGHTFTRYYMHWVRQAPGQGLEWMGIINPSGGYATYAQKFQGRVTMTRDTSTSTVYMELSSLRSEDTAVYYCASGLFIWGQGTLVTVSSAKTTAPSVYPLAPVCGDTTGSSVTLGCLVKGYFPEPVTLTWNSGSLSSGVHTFPAVLQSDLYTLSSSVTVTSSTWPSQSITCNVAHPASSTKVDKKIEPRGPTIKPCPPCKCPAPNAAGGPSVFIFPPKIKDVLMISLSPIVTCVVVDVSEDDPDVQISWFVNNVEVHTAQTQTHREDYNSTLRVVSALPIQHQDWMSGKEFKCKVNNKDLGAPIERTISKPKGSVRAPQVYVLPPPEEEMTKKQVTLTCMVTDFMPEDIYVEWTNNGKTELNYKNTEPVLDSDGSYFMYSDLRVEKKNWVERNSYSCSVVHEGLHNHHTTESFSRTPGK heavy 2: QVQLVQSGAEVKKPGASVKVSCKASGHTFTRYYMHWVRQAPGQGLEWMGIINPSGGYATYAQKFQGRVTMTRDTSTSTVYMELSSLRSEDTAVYYCASGLFIWGQGTLVTVSSAKTTAPSVYPLAPVCGDTTGSSVTLGCLVKGYFPEPVTLTWNSGSLSSGVHTFPAVLQSDLYTLSSSVTVTSSTWPSQSITCNVAHPASSTKVDKKIEPRGPTIKPCPPCKCPAPNAAGGPSVFIFPPKIKDVLMISLSPIVTCVVVDVSEDDPDVQISWFVNNVEVHTAQTQTHREDYNSTLRVVSALPIQHQDWMSGKEFKCKVNNKDLGAPIERTISKPKGSVRAPQVYVLPPPEKEMTKKQVSLTCLVKDFMPEDIYVEWTNNGKTELNYKNTEPVLKSDGSYFMYSKLTVEKKNWVERNSYSCSVVHEGLHNHHTTKSFSRTPGGGGSGGGSHHHHHH light: DIQMTQSPSSLSASVGDRVTITCRASQSINSWLAWYQQKPGKAPKLLIYATSTLESGVPSRFSGSGSGTDFTLTISSLQPEDFATYYCQQYYRFPVTFGQGTKVEIKRADAAPTVSIFPPSSEQLTSGGASVVCFLNNFYPKDINVKWKIDGSERQNGVLNSWTDQDSKDSTYSMSSTLTLTKDEYERHNSYTCEATHKTSTSPIVKSFNRNEC
 | 31 pM | 62 pM | AF4403 (other) heavy 1: QVQLVESGGGVVQPGRSLRLDCKASGITFSNSGMHWVRQAPGKGLEWVAVIWYDGSKRYYADSVKGRFTISRDNSKNTLFLQMNSLRAEDTAVYYCATNDDYWGQGTLVTVSSAKTTAPSVYPLAPVCGDTTGSSVTLGCLVKGYFPEPVTLTWNSGSLSSGVHTFPAVLQSDLYTLSSSVTVTSSTWPSQSITCNVAHPASSTKVDKKIEPRGPTIKPCPPCKCPAPNAAGGPSVFIFPPKIKDVLMISLSPIVTCVVVDVSEDDPDVQISWFVNNVEVHTAQTQTHREDYNSTLRVVSALPIQHQDWMSGKEFKCKVNNKDLGAPIERTISKPKGSVRAPQVYVLPPPEKEMTKKQVSLTCLVKDFMPEDIYVEWTNNGKTELNYKNTEPVLKSDGSYFMYSKLTVEKKNWVERNSYSCSVVHEGLHNHHTTKSFSRTPGGGGGSGGGGSGGGGSGGGGSQVQLVQSGAEVKKPGASVKVSCKASGDTFTRYYVHWVRQAPGQGLEWMGIINPSGGYASYAQKFQGRVTMTRDTSTSTVYMELSSLRSEDTAVYYCAAGLFIWGQGTLVTVSSASGGGGSGGGGSGGGGSHASDIQMTQSPSSLSASVGDRVTITCRASQSIGRYLAWYQQKPGKAPKLLIYSASNLETGVPSRFSGSGSGTDFTLTISSLQPEDFATYYCQQYNSFPVTFGPGTKVDIKGGGSGGGSHHHHHH heavy 2: QVQLVESGGGVVQPGRSLRLDCKASGITFSNSGMHWVRQAPGKGLEWVAVIWYDGSKRYYADSVKGRFTISRDNSKNTLFLQMNSLRAEDTAVYYCATNDDYWGQGTLVTVSSAKTTAPSVYPLAPVCGDTTGSSVTLGCLVKGYFPEPVTLTWNSGSLSSGVHTFPAVLQSDLYTLSSSVTVTSSTWPSQSITCNVAHPASSTKVDKKIEPRGPTIKPCPPCKCPAPNAAGGPSVFIFPPKIKDVLMISLSPIVTCVVVDVSEDDPDVQISWFVNNVEVHTAQTQTHREDYNSTLRVVSALPIQHQDWMSGKEFKCKVNNKDLGAPIERTISKPKGSVRAPQVYVLPPPEEEMTKKQVTLTCMVTDFMPEDIYVEWTNNGKTELNYKNTEPVLDSDGSYFMYSDLRVEKKNWVERNSYSCSVVHEGLHNHHTTESFSRTPGGGGGSGGGGSGGGGSAPTSSSTKKTQLQLEHLLLDLQMILNGINNYKNPKLTDMLTFEFYMPKKATELKHLQCLERELKPLEEVLNLAQSKNFHLRPRDLISNINVIVLELKGSETTFMCEYADETATIVEFLNRWITFCQSIISTLT light: EIVLTQSPATLSLSPGERATLSCRASQSVSSYLAWYQQKPGQAPRLLIYDASNRATGIPARFSGSGSGTDFTLTISSLEPEDFAVYYCQQSSNWPRTFGQGTKVEIKRADAAPTVSIFPPSSEQLTSGGASVVCFLNNFYPKDINVKWKIDGSERQNGVLNSWTDQDSKDSTYSMSSTLTLTKDEYERHNSYTCEATHKTSTSPIVKSFNRNEC
